According to patent US20210403541A1 (Merck Sharp & Dohme, published 2021):
Non-standard residues stand in square brackets, D forms with d. No end group written: not given here. pS = N[C@@H](COP(=O)(O)O)C(=O)O

T1: pSer412Cys (74AXY) (human)
T1 peptide: NV[pS]STGSC

T2: pT212/pS214GC (69AXY) (human, phosphothreonine 212 and phosphoserine 214 of tau, printed GCGSPGTPGSRSR(pT)P(pS)LPTPPTREPK)
T2 construct: also called T-pT212pS214GC
T2 peptide: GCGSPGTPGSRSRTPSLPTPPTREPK

T3: pS396/400/404GC (84AWK) (human, phosphoserines at 396, 400 and 404 of tau, printed GCRENAKAKTDHGAEIVYK(pS)PVV(pS)GDT(pS)PRHL)
T3 construct: also called T-pS396/400/404GC
T3 peptide: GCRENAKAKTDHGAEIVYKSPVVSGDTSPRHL


Key:
pSer412Cys (74AXY) = molecular target: T1, pSer412Cys (74AXY); assay: peptide-coated ELISA (1 µg/ml peptide 74AXY coat, anti-human IgG-HRP, ABTS, OD405)
Description: (§1) Binding specificity of the high affinity antibodies described herein was assessed with various tau peptides by a peptide-coated ELISA. Plates were coated with 50 μl of 1 μg/ml peptides 69AXY, 70AXY, 74AXY, 84AWK, 25AWF, or 24AWF in PBS for overnight at 4° C. On the next day, the plates were washed 3 times, blocked with 200 μl of superblock for 1 hr at room temperature, then washed 3 times again. Antibodies were diluted at 1:5 serial dilution in ELISA buffer starting from 10 μg/ml. The plates were incubated with 50 μl of serially diluted antibodies at room temperature for 1 hr and washed 3 times.

pT212/pS214GC (69AXY) = molecular target: T2, pT212/pS214GC (69AXY); assay: peptide-coated ELISA (1 µg/ml peptide 69AXY coat, anti-human IgG-HRP, ABTS, OD405)
Description: as §1

pS396/400/404GC (84AWK) = molecular target: T3, pS396/400/404GC (84AWK); assay: peptide-coated ELISA (1 µg/ml peptide 84AWK coat, anti-human IgG-HRP, ABTS, OD405)
Description: as §1

human FcRn = human FcRn (human, UniProt P55899 24-297; P61769 21-119, limits assumed); assay: SPR (Biacore), antibody captured by anti-human kappa, FcRn injected, pH 6.0, steady-state fit; pH 6.0
Description: (§2) Anti-human kappa antibody was amine coupled to a CMS chip. Each antibody was captured to 200-300 RUs. Binding assays were performed using PBS running buffer containing 0.05% Tween-20, adjusted to either pH 6.0 or 7.4. Titration samples were also prepared using the corresponding pH buffer for the assay. Titrating concentrations (1200 nM top, 6-point, 3-fold dilution series and two zeros) of human or cyno FcRn were injected over the captured mAbs. Each sample injection was followed by two 30-second injections of 10 mM glycine, pH 1.5 and a 12-second injection of 10 mM NaOH to regenerate the surface for subsequent antibody capture and injection. All assays were run on Biacore T200 and/or 4000 instruments (GE Healthcare) and the data were fit to a steady-state approximation model using Biaevaluation software. Affinity at pH 6.0 was calculated as equivalent to concentration at half maximal binding signal in the steady-state approximation (TABLE 9).

[1] = molecular target: cynomolgus monkey (cyno) FcRn (cynomolgus monkey, UniProt Q8SPV9 24-297; Q8SPW0 21-119, limits assumed); assay: as above
Description: as §2

[2] = molecular target: T4, phosphorylated tau protein monomer (35 AWM); assay: competitive ELISA, phosphorylated tau protein monomer 35 AWM (1 ng)
T4 construct: also called recombinant phosphorylated tau protein monomer

[3] = molecular target: T5, tau species in brain homogenates from mutant tau mice (rTg(tauP301L)4510), sarkosyl insoluble tau seeds; assay: competitive ELISA, tau mutant mice brain SI tau seeds (4 ng protein)
T5 construct: also called Tau mutant mice brain; SI Tau seeds
Description: (§3) Binding affinities of various anti-tau-pS413 antibodies described herein for endogenous tau species were determined in brain homogenates and CSF samples from AD patients and preclinical models. Briefly, samples were pre-incubated with different concentrations of various anti-tau-pS413 antibodies, or respective isotype controls. Following a one-hour pre-incubation period, the antigen-antibody (Ag-Ab) mixture was added to plates pre-coated with a total tau capture antibody (Innotest ELISA kit).
Tissue homogenates were prepared using 1% sarkosyl buffer with several high-speed centrifugation steps to enrich for insoluble proteins including tau.

[4] = molecular target: T6, tau species in CSF of African Green Monkeys (African Green Monkey); assay: competitive ELISA, fresh AGM CSF (75 µl of neat CSF)
T6 construct: also called Fresh African Green Monkey (AGM) CSF
Description: as §3

Row | binding result (pSer412Cys (74AXY)) | binding result (pT212/pS214GC (69AXY)) | binding result (pS396/400/404GC (84AWK)) | Human FcRn fold change (relative to HmzTa1505-hIgG4-S228P) (human FcRn) | Kd (human FcRn) | Cyno FcRn fold change (relative to HmzTa1505-hIgG4-S228P) [1] | Kd [1] | EC50 [2] | EC50 [3] | EC50 [4] | Binder
1 | no binding (tested: 10 µg/ml) | no binding (tested: 10 µg/ml) | no binding (tested: 10 µg/ml) | 1 fold | 230 nM | 1.6 fold | 160 nM |  |  |  | V8-AFM-hIgG1-LALA (antibody, Human IgG1 L234A L235A/kappa; also called V8-AFM-IgG1-LALA) heavy: not shown light: DIVMTQSPLSLPVTLGEPASISCRSSQKIVHRNANTYLEWYLQKPGQSPQLLIYTVSNRFSGVPDRFSGSGSGTDFTLKISRVEAEDLGVYYCFQGSYLPLTFGGGTKVEIKRTVAAPSVFIFPPSDEQLKSGTASVVCLLNNFYPREAKVQWKVDNALQSGNSQESVTEQDSKDSTYSLSSTLTLSKADYEKHKVYACEVTHQGLSSPVTKSFNRGEC
2 | no binding (tested: 10 µg/ml) | no binding (tested: 10 µg/ml) | no binding (tested: 10 µg/ml) | 1 fold | 210 nM | 1 fold | 260 nM |  |  |  | V8-AFM-hIgG4-S228P (antibody, also called V8-AFM-IgG4-S228P) heavy: not shown light: DIVMTQSPLSLPVTLGEPASISCRSSQKIVHRNANTYLEWYLQKPGQSPQLLIYTVSNRFSGVPDRFSGSGSGTDFTLKISRVEAEDLGVYYCFQGSYLPLTFGGGTKVEIKRTVAAPSVFIFPPSDEQLKSGTASVVCLLNNFYPREAKVQWKVDNALQSGNSQESVTEQDSKDSTYSLSSTLTLSKADYEKHKVYACEVTHQGLSSPVTKSFNRGEC
3 | no binding (tested: 10 µg/ml) | no binding (tested: 10 µg/ml) | no binding (tested: 10 µg/ml) | 6.5 fold | 34 nM | 11 fold | 24 nM | 0.055 nM | 0.004 nM | 0.008 nM | V8-AFM-hIgG1-LALA-YTE (antibody, Human IgG1 L234A L235A YTE/kappa; also called V8-AFM-IgG1-LALA-YTE) heavy: EVQLVESGGGLVQPGGSLRLSCAASGFTFSSFALNWVRQAPGKGLEWVGHIRSETNNYVTFYAASVKGRFTVSRDDSQNTAYLQMNSLKTEDTATYYCVRRGPRDSWFGYWGQGTLVTVSSASTKGPSVFPLAPSSKSTSGGTAALGCLVKDYFPEPVTVSWNSGALTSGVHTFPAVLQSSGLYSLSSVVTVPSSSLGTQTYICNVNHKPSNTKVDKKVEPKSCDKTHTCPPCPAPEAAGGPSVFLFPPKPKDTLYITREPEVTCVVVDVSHEDPEVKFNWYVDGVEVHNAKTKPREEQYNSTYRVVSVLTVLHQDWLNGKEYKCKVSNKALPAPIEKTISKAKGQPREPQVYTLPPSRDELTKNQVSLTCLVKGFYPSDIAVEWESNGQPENNYKTTPPVLDSDGSFFLYSKLTVDKSRWQQGNVFSCSVMHEALHNHYTQKSLSLSPGK light: DIVMTQSPLSLPVTLGEPASISCRSSQKIVHRNANTYLEWYLQKPGQSPQLLIYTVSNRFSGVPDRFSGSGSGTDFTLKISRVEAEDLGVYYCFQGSYLPLTFGGGTKVEIKRTVAAPSVFIFPPSDEQLKSGTASVVCLLNNFYPREAKVQWKVDNALQSGNSQESVTEQDSKDSTYSLSSTLTLSKADYEKHKVYACEVTHQGLSSPVTKSFNRGEC
4 |  |  |  | 1 fold | 220 nM | 1 fold | 260 nM | 6.73 nM | 0.67 nM | 2.08 nM | HmzTa1505-hIgG4-S228P (antibody) heavy: not shown light: DIVMTQSPLSLPVTLGEPASISCRSSQNIVHSNANTYLEWYLQKPGQSPQLLIYTVSNRFSGVPDRFSGSGSGTDFTLKISRVEAEDLGVYYCFQGSHLPLTFGGGTKVEIKRTVAAPSVFIFPPSDEQLKSGTASVVCLLNNFYPREAKVQWKVDNALQSGNSQESVTEQDSKDSTYSLSSTLTLSKADYEKHKVYACEVTHQGLSSPVTKSFNRGEC
5 | no binding (tested: 10 µg/ml) | no binding (tested: 10 µg/ml) | no binding (tested: 10 µg/ml) |  |  |  |  |  |  |  | V5-AFM-hIgG4-S228P (antibody, V domains shown, also called V5-AFM-IgG4-S228P) VH: EVQLVESGGGLVQPGGSLRLSCAASGFTFSSFALNWVRQAPGKGLEWVGHIRSKTNNYVTFYAASVKGRFTVSRDDSQNTAYLQMNSLKTEDTATYYCVRRGPRDSWFGYWGQGTLVTVSS VL: DIVMTQSPLSLPVTLGEPASISCRSSQKIVHRNANTYLEWYLQKPGQSPQLLIYTVSNRFSGVPDRFSGSGSGTDFTLKISRVEAEDLGVYYCFQGSYLPLTFGGGTKVEIK
